From the nanobody polyreactivity screen of Harvey et al. (2022)

Experiment: yeast display, Sf9 membrane polyspecificity reagent, FACS + sequencing; frameworks hold sequencing errors
In short: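 A synthetic nanobody library was expressed on Saccharomyces cerevisiae BJ5465 by galactose induction for 36–48 hours. The library was stained for 1 hour at 4 °C with 10% biotinylated, detergent-solubilized Sf9 membrane reagent and enriched with streptavidin microbeads before FACS. Low and high (top ~1%) gates were set on anti-HA fluorescence for expression and streptavidin fluorescence for reagent binding, and each polyreactivity label reflects the gate of origin.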

Sequence	polyreactivity (PSR sort gate)
QVQLVESGGGLVQAGGSLRLSCAASGITFGRNTMGWYRQAPGKERELVASINKSGGSTYYADSVKGRFTISRDNAKNTVYLQMNSLKPEDTAVYYCAARTGWPRVGFLYPAHVGFDYWGQGTQVTVSS	low polyreactivity
QVQLVESGGGLVQAGGSLRLSCAASGITFGRNTMGWYRQPPGKERELVAAIDSGGNTYADSVKGRFTISRDNAKNTVYLQMNSLKPEDTAVYYCAVDGGEFSSYGYWVQGTQVTVSS	low polyreactivity
QVQLVESGGGLVQAGGSLRLSCAASGITFGRYAMGWYRQAPGKERELVAAISWSGGSTYYADSVKGRFTISRDNANNTVYLQMNRLKPEDTAVYYCNVVFRFNSFDYYYWGQGSQVTVSS	high polyreactivity
QVQLVESGGGLVQAGGSLRLSCAASGITFGRYVMGWYRQAPGKERELVATISSGGRTKYADSVKGRFSISRDNAKNTVYLQMNSLKPEDTAGYYCNAESPKWPWYSGFDYWGQGTQVTVSS	high polyreactivity
QVQLVESGGGLVQAGGSLRLSCAASGITFGSYAMGWYRQAPGKERELVAAITWRGGTTYYADSVKARFTISRDNAKNTVYLQMNSLKPEDTAVYYCNTAWTGYPRYQYGGNYWGQGTQVTVSS	high polyreactivity
QVQLVESGGGLVQAGGSLRLSCAASGITFGVNTMGWYRQAPGKERELVAAITWRGGSTYYADSVKGRFTISRDNAKNTVYLQMNSLKPEDTAVYYCAAQPIWPGGQELDYWGQGTQVTVSS	low polyreactivity
QVQLVESGGGLVQAGGSLRLSCAASGITFGYYAMGWYRQAPGKERELVASISWSGDSTYYADSVKGRFTISRDNAKNTVYLQMNSLKPEDTAVYYCNRGSSWEYGAEYNYWGQGTQVTVSS	low polyreactivity
QVQLVESGGGLVQAGGSLRLSCAASGITFGYYDMGWYRQAPGKERELVAAISRGGGRTYYADSVKGRFTISRDNAKNTVYLQMNSLKPEDSAVYYCAAPSRYGGRGRPTLYDYWGQGTQVTVSS	high polyreactivity
QVQLVESGGGLVQAGGSLRLSCAASGITFHGYAMGWDRQAPGKERELVAAISDSGSSTYYADSVKGRFTISRDNAKNTVYLQMNSLKPEHTAVYYCAAVSGFYDQYDYWGQGTQVTVSS	low polyreactivity
QVQLVESGGGLVQAGGSLRLSCAASGITFHRYDMVWYRQAPGKERELVADITWSGGSTYYADSVKVRFTISRDNAKNTVYLQMNSLKPEDTAVYYCAADASTYTYTPYDYWGQGTQVTVSS	low polyreactivity
QVQLVESGGGLVQAGGSLRLSCAASGITFIGYVMGWYRQAPGKERELVAAISRSGASTYYADSVKGRFTISRDNAKNTVYLQMNSLKPEDTAVYYCATVRYHPAYYYWGQGTQVTVSS	high polyreactivity
QVQLVESGGGLVQAGGSLRLSCAASGITFINYDMGWYRQAPGKERELVAAISQIGTSTYYADSVKGRFTISRDNAKNTVYLQMNSLKPEDTAVYYCNARYISTGFRYNYWGQGTQVTVSS	high polyreactivity
QVQLVESGGGLVQAGGSLRLSCAASGITFIRYAMGWYRQAPGKERELVAVITRSGGRTYYADSVKGRFTISRDNAKNTVYLQMNSLKPEDTAVYYCAARAYGYDEYEYWGQGTQVTVSS	high polyreactivity
QVQLVESGGGLVQAGGSLRLSCAASGITFITYAMGWYRQAPGKERELVAAISIRGGSTYYADSVKGRFTISRDNAKNTVYLQMNSLKPEDTAVYYCAKDNRSYTYDYWGQGTQVTVSS	low polyreactivity
QVQLVESGGGLVQAGGSLRLSCAASGITFITYVMGWYRQAPGKERELVAAISLRGGRTSYADSVKGRFTISRDNAKNTVYLQMNSLKPEDTAVYYCAARAYYTRYDFWGQGTQVTVSS	high polyreactivity
QVQLVESGGGLVQAGGSLRLSCAASGITFKRNAMGWYRQAPGKERELVAAISTTGGRTYYADSVKGRFTISRDNAKNTVYLQMNSLKPEDTAVYYCAARGGPVTYDYWGQGTQVTVSS	high polyreactivity
QVQLVESGGGLVQAGGSLRLSCAASGITFKTYDMGRYRQAPGKERELVATINRGSRTNYADSVKGRFTISRDNAKNTVYLQMNSLKPEDTAVYYCSAHDTTFIPSPDGDYLGQGTQVTVSS	low polyreactivity
